The values below come from patent publication US20250085298A1 (TRITON SYSTEMS, published 2025).

The target in experiment [1] is T1, rabbit α-crystallin A (CRYAA), native protein in rabbit intraocular fluid (rabbit, UniProt P02493 1-173, limits assumed).
T1 construct: Analyte of the lateral flow assay in rabbit samples; also called Crystallin-αA; αA-Crystallin
T1 sequence (looked up): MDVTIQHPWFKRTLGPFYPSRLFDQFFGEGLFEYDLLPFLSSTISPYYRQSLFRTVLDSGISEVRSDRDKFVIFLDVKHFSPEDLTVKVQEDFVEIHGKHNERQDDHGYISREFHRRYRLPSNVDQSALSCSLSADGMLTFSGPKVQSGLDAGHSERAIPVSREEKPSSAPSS
The experiment can be described thus: lateral flow sandwich strip, MAB1601-AuNP conjugate with MAB1301 test line; swab of rabbit eye, Arm 3: 3 mm full-thickness laceration, AC/limbus, no confounder. How it is done:
(§1) The expected results were that either one, or two, distinct red lines would form on the readout area of the test strip. The bottom half of the readout area on the nitrocellulose strip was expected to always show a red line (control), while appearance of the second line confirmed a positive result. The results were documented and whole test strip was imaged after removing the top of its plastic casing. The test strips were labelled and shipped on cold packs. For the second sample, 10-30 μL (as much as possible up to 30 μL) of the remaining ocular film was drawn by pipette and deposited in a microcentrifuge tube labeled with identities corresponding to the test strips. To this liquid sample, an equal volume of RNAlater solution was added and the sample was stored at −80° C. until shipment to the client on dry ice. Following sedation, rabbits were euthanized by intravenous barbiturate overdose. Euthasol® was delivered via the marginal ear vein at a concentration of 390 mg/ml, and a dose of 87 mg/kg. Following confirmation of euthanasia, whole corneas with sclera rims were collected and immediately placed in PBS. The medium was then exchanged for freshly made 4% PFA and tissue was fixed at room temperature for 23 hours. The tissue was then embedded in paraffin and shipped for further analysis. […]

The target in experiment [2] is T1, rabbit α-crystallin A (CRYAA), native …. The experiment is described as follows: lateral flow sandwich strip, MAB1601-AuNP conjugate with MAB1301 test line; swab of rabbit eye, Arm 9: 1 mm full-thickness puncture, peripheral cornea, no confounder. On the procedure:
as §1

Where a chain is given by its changes, count along the chain named.

B1: MAB1601 (Conjugate Ab; target recognition element) (antibody, mouse IgG1, kappa, V domains shown)
VH: EVKLQESGPSLVKPSQTLSLTCSVTGDSITSGYWNWIRKFPGNKLEYMGYISYSGSTYFNPSLKSRISITRDTSKNQYYLQLNSVTTEDTATYYCSTGFAYWGQGTLVTVSA
VL: DIVMSQSPSSLAVSVGEKVIMRCNSSQSLLYSGNRENYLAWYQQKPGQSPNLLIYWASRRASGVPDRFAGGGSGTDFTLTISSVKAEDLAVYYCQHYYNYPLTFGAGTRLELKR
notes: Custom anti-CRYAA monoclonal antibody made in mice against the modified C-terminal CRYAA immunogen; In the assay its amines were coupled to carboxyl gold nanoparticles by EDC/sNHS chemistry; also called conjugate antibody; upstream target recognition element
Consider B1, for which the binding result in experiment [1] is listed as “binds”.

B2: MAB1301 (Test Line Ab; test element) (antibody, mouse IgG1, kappa, V domains shown)
VH: EVKLQESGPSLVRPGASVKMSCKASGYTFTSYNMHWVKQTPRQGLEWIGAIYPGNGDTSYNQKFKGKATLTVDKSSSTAYMQLSSLTSEDSAVYFCARVVYYSNSYWYFDVWGTGTTVTVSA
VL: B1 VL with G71S
notes: Custom anti-CRYAA monoclonal antibody made in mice; It was immobilised on the nitrocellulose test line; also called MAB1301 T-line; test-line antibody
For the molecule B2, the binding result in experiment [2] is “binds”.
